Measurements published in patent US20210393777A1.
One block for each substance: values may come before it.

Experiments:
LDLR (human) = LDLR (human) (UniProt P01130)
[1] = target: human PCSK9-D347Y (human) (UniProt Q8NBP7); assay: cell-based or functional assay

Chain of LDLR (human) (P01130 22-860): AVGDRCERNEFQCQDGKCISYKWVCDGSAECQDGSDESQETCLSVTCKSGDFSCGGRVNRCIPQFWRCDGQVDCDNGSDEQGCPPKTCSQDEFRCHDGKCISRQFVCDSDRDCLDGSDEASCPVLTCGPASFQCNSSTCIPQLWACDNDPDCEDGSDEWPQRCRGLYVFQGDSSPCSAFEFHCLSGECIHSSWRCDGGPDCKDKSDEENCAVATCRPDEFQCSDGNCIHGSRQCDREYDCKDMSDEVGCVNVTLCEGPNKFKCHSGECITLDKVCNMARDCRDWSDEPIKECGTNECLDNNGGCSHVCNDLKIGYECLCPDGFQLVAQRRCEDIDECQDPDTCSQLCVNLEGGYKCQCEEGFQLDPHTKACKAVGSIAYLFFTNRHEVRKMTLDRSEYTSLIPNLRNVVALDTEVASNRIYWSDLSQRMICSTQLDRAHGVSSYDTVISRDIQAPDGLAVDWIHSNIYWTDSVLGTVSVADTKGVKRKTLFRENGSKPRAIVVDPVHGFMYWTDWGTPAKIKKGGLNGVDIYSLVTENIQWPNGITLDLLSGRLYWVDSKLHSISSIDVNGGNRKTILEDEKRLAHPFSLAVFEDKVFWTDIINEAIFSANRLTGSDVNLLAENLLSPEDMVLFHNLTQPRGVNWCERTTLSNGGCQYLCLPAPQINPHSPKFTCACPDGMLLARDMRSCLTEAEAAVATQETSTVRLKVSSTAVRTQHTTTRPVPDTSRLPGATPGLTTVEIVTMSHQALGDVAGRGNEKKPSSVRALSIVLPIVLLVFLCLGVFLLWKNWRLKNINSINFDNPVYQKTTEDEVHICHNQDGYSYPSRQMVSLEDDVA

IC50 of the fall in RFU as PCSK9 concentration rises ('Inhibition of different PCSK9 antigen species'; binding and uptake of LDL by cells) (LDLR (human)): 2.46 µg/mL
Substance: Cynomolgus monkey PCSK9 (from UniProt A0A7N9D9N8) (enzyme)

Biological activity (LDL uptake assay in HepG2 cells), formulation 20, 25 C, month 0 (% of reference standard) [1]: 104 | Biological activity (LDL uptake assay in HepG2 cells), formulation 20, 25 C, month 1 (% of reference standard) [1]: 94.2 | Biological activity (LDL uptake assay in HepG2 cells), formulation 20, 25 C, month 3 (% of reference standard) [1]: 92.6 | Biological activity (LDL uptake assay in HepG2 cells), formulation 20, 25 C, month 6 (% of reference standard) [1]: 81.1 | Biological activity (LDL uptake assay in HepG2 cells), formulation 28, 2-8 C, month 0 (% of reference standard) [1]: 120 | Biological activity (LDL uptake assay in HepG2 cells), formulation 28, 2-8 C, month 1 (% of reference standard) [1]: 106 | Biological activity (LDL uptake assay in HepG2 cells), formulation 28, 2-8 C, month 2 (% of reference standard) [1]: 111 | Biological activity (LDL uptake assay in HepG2 cells), formulation 28, 2-8 C, month 3 (% of reference standard) [1]: 109 | Biological activity (LDL uptake assay in HepG2 cells), formulation 28, 2-8 C, month 6 (% of reference standard) [1]: 106 | Biological activity (LDL uptake assay in HepG2 cells), formulation 28, 2-8 C, month 9 (% of reference standard) [1]: 104 | Biological activity (LDL uptake assay in HepG2 cells), formulation 28, 2-8 C, month 12 (% of reference standard) [1]: 109 | Biological activity (LDL uptake assay in HepG2 cells), formulation 29, 2-8 C, month 0 (% of reference standard) [1]: 102 | Biological activity (LDL uptake assay in HepG2 cells), formulation 29, 2-8 C, month 1 (% of reference standard) [1]: 103 | Biological activity (LDL uptake assay in HepG2 cells), formulation 29, 2-8 C, month 2 (% of reference standard) [1]: 97.3 | Biological activity (LDL uptake assay in HepG2 cells), formulation 29, 2-8 C, month 3 (% of reference standard) [1]: 90.3 | Biological activity (LDL uptake assay in HepG2 cells), formulation 29, 2-8 C, month 6 (% of reference standard) [1]: 84.9 | Biological activity (LDL uptake assay in HepG2 cells), formulation 29, 2-8 C, month 9 (% of reference standard) [1]: 103 | Biological activity (LDL uptake assay in HepG2 cells), formulation 29, 2-8 C, month 12 (% of reference standard) [1]: 97.7 | Biological activity (LDL uptake assay in HepG2 cells), formulation 30, 2-8 C, month 0 (% of reference standard) [1]: 114 | Biological activity (LDL uptake assay in HepG2 cells), formulation 30, 2-8 C, month 1 (% of reference standard) [1]: 94.6 | Biological activity (LDL uptake assay in HepG2 cells), formulation 30, 2-8 C, month 2 (% of reference standard) [1]: 96.8 | Biological activity (LDL uptake assay in HepG2 cells), formulation 30, 2-8 C, month 3 (% of reference standard) [1]: 98.7 | Biological activity (LDL uptake assay in HepG2 cells), formulation 30, 2-8 C, month 6 (% of reference standard) [1]: 92.3 | Biological activity (LDL uptake assay in HepG2 cells), formulation 30, 2-8 C, month 9 (% of reference standard) [1]: 106 | Biological activity (LDL uptake assay in HepG2 cells), formulation 30, 2-8 C, month 12 (% of reference standard) [1]: 97.2 | Biological activity (LDL uptake assay in HepG2 cells), formulation 31, 2-8 C, month 0 (% of reference standard) [1]: 122 | Biological activity (LDL uptake assay in HepG2 cells), formulation 31, 2-8 C, month 1 (% of reference standard) [1]: 97.9 | Biological activity (LDL uptake assay in HepG2 cells), formulation 31, 2-8 C, month 2 (% of reference standard) [1]: 83.5 | Biological activity (LDL uptake assay in HepG2 cells), formulation 31, 2-8 C, month 3 (% of reference standard) [1]: 107 | Biological activity (LDL uptake assay in HepG2 cells), formulation 31, 2-8 C, month 6 (% of reference standard) [1]: 108 | Biological activity (LDL uptake assay in HepG2 cells), formulation 31, 2-8 C, month 9 (% of reference standard) [1]: 87.8 | Biological activity (LDL uptake assay in HepG2 cells), formulation 31, 2-8 C, month 12 (% of reference standard) [1]: 102 | EC50, uptake of fluorescently labeled LDL by HepG2 cells exposed to human PCSK9-D347Y [1]: 0.0927 µg/mL
Substance: JS002 (antibody)

EC50, uptake of fluorescently labeled LDL by HepG2 cells exposed to human PCSK9-D347Y [1]: 0.151 µg/mL
Substance: evolocumab (antibody)
